Patent publication US10588972B2, “Phthalocyanine probes and uses thereof” (LI-COR, INC., priority 2014, dated 2020)
Several values for one entry are separate records, joined by “and”; a condition that tells them apart may be missing. Equal entries are not always repeated. Where two headings read alike, the source gives them in different places.

What was measured:
Assay type in all cases: cell-based
HTB-186 cells [1] = experiment: Caspase 3/7 assay (Example 10, Table 8); conditions: 32 J/cm^2, probe about 5 hours, 20 hours post irradiation; 700DX-RGD and 700DX-EGF 500 nM
Method: (§1) This example illustrates the ability of IRDye® 700DX small molecule conjugates to induce apoptosis in cells, e.g., cancer cells. In this study HTB-186 cells (a desmoplastic cerebellar medulloblastoma cell line) were treated with IRDye® 700DX small molecule conjugates (IRDye® 700DX labeled chlorotoxin, anti-EGFR Affibody®, RGD peptide and EGF ligand). Apoptosis was measured by evaluating caspase 3/7 activity and mitochondrial membrane potential. […]
The caspase 3/7 assay was used to measure caspase 3/7 activity in the cells from the treatments listed above. […] Upon activation, the caspases cleave the substrate, and in turn, a fluorescence signal is emitted. […] The fluorescence can be detected by, for example, flow cytometry, fluorescence microscopy, and fluorescence-based image cytometry.
To determine whether the treated cells are undergoing apoptosis, a caspase 3/7 assay and mitochondrial potential assay were performed. […] Table 8 below provides cells number, % viability, JC-1% shift, and % late apoptotic and dead cells as determined by caspase 3/7 assay.

A431 cells [2] = experiment: Cytotoxicity and localization of antibody probe versus small protein ligand probe after irradiation (Example 4)
Method: Both probes can bind EGFR and had approximately 2 dye molecule per conjugate molecule. It was assumed that the affinity for the receptor will be different for the antibody (generally pM), compared to the small protein (nM). Although the probe doses were different, the incubation times were the same at only 10 min. After incubation, the probes were rinsed from the cells. FIGS. 7A and 7B illustrates A431 cells that were incubated with IRDye 700DX-panitumumab or IRDye 700DX-EGF, respectively and thereafter irradiated.
Thus, upon irradiation, the production of singlet oxygen occurred at the cell surface. Typically, the EGF ligand is internalized after binding the EGF receptor.

A431 cells [3] = experiment: VB-48 assay: vitality, viability and necrosis of treatments 1-10 (Table 3); conditions: irradiated (I) 32 J/cm^2; RGD 0.5 μM, EGF 0.5 μM, NHSe 5 μM, Pan ~0.1 μM
Method: Briefly, A431 cells were labeled with respective probes for specific treatments (listed below); cells were rinsed and evaluated for labeling. The test include the following treatments: […], treatments 3-4 of EGF-IRDye® 700DX at 0.5 μM and radiation, treatments 5-6 of IRDye® 700DX NHSe at 5 μM and radiation, treatments 7-8 of panitumumab-IRDye® 700DX at about 0.1 μM and radiation, treatment 9 of a negative control with no probe and no irradiation, and treatment 10 of RGD-IRDye® 700DX and no irradiation. The probes were incubated for about 10 minutes and with a longer period of about 20 minutes for the RGD probe. The cells were monitored with microscopy and morphology was examination 24 hours post treatment.
Low binding was expected for the RGD probe due to the low level of integrin receptors on A431 cells. […] By 3 hours post-irradiation all treatments except RGD (Treatment 1) show significant cytotoxicity. Vitality, viability and necrosis assays such as a VB-48 assay and JC-1 assay were performed.

HTB-186 cells [4] = experiment: Viability, cell number and microscopy morphology at 20 h post irradiation (Example 10)
Method: This example illustrates the ability of IRDye® 700DX small molecule conjugates to induce apoptosis in cells, e.g., cancer cells. In this study HTB-186 cells (a desmoplastic cerebellar medulloblastoma cell line) were treated with IRDye® 700DX small molecule conjugates (IRDye® 700DX labeled chlorotoxin, anti-EGFR Affibody®, RGD peptide and EGF ligand). Apoptosis was measured by evaluating caspase 3/7 activity and mitochondrial membrane potential. Apoptosis can be characterized by a variety of cell morphological and biochemical changes including membrane blebbing, cell shrinkage, alteration of membrane asymmetry and permeability, and/or condensation of chromatin and nucleus (Coleman et al., Nat Cell Biol, 2001, 3(4):339-45, Bortner and Cidlowski, Biochem Pharmacol, 1998, 56(12):1549-59; van Engeland et al., Experimental Cell Research, 1997, 235:421-430).
Microscopy images of cells in petri-dishes were captured at 20 h post irradiation. The images were captured in DIC and 700 nm to visualize the probe, and composite images were generated (DIC+700 nm) to visualize the overlay.
To determine whether the treated cells are undergoing apoptosis, a caspase 3/7 assay and mitochondrial potential assay were performed. All cells from each treatment were recovered and processed accordingly. Table 8 below provides cells number, % viability, JC-1% shift, and % late apoptotic and dead cells as determined by caspase 3/7 assay.

A431 cells [5] = experiment: Caspase 3/7 assay, doses of IRDye 700DX-labeled EGF (Table 4)
Method: A431 cells were treated with IRDye® 700DX-labeled EGF at a concentration of about 0.1-1 μM for about 8 minutes and irradiated at about 32 J/cm^2.
Briefly, 150,000 cells were plated and incubated overnight at 37° C., 5% CO2. About 1 ml of the probe was added to the appropriate treatments. The cells were rinsed after the incubation period and imaged. The cells were irradiated with a small LED apparatus. The cells were further incubated at 37° C., 5% CO2, and then imaged at 2-3 hours post irradiation. The cells were then harvested and resuspended in 250 μl PBS. The cells were counted in NC-100™ NucleoCounter® (ChemoMetec A/S; Allerod, Denmark). The cells were analyzed according to manufacturer's protocol to perform the caspase3/7 assay (ImmunoChemistry Technologies, LCC, Bloomington, Minn.). NC indicates negative control, e.g., no probe.

HTB-186 cells [6] = experiment: JC-1 mitochondrial membrane potential assay (Example 10, Table 8); conditions: 32 J/cm^2, probe about 5 hours, 20 hours post irradiation; 700DX-RGD and 700DX-EGF 500 nM
Method: as §1
In this study a mitochondrial membrane potential assay was performed on cells from treatments 1-8 to determine whether the treated cells underwent apoptosis. […] As JC-1 dye accumulated in mitochondria, its fluorescence emission shifts from green (about 529 nm) to red (about 590 nm). The presence of red fluorescence due to JC-1 aggregate formation corresponds to regions of high mitochondrial polarization. Depolarized mitochondria are indicated by green fluorescence of the JC-1 monomers. A detectable decrease in the red/green fluorescence intensity ratio indicates mitochondrial depolarization, and thus, apoptosis. In a membrane potential assay, cells are incubated with the JC-1 dye and fluorescence is detected by, for example, flow cytometry, fluorescence microscopy, and fluorescence-based image cytometry. […]

A431 cells [7] = experiment: Photodynamic therapy effect on cell morphology and viability (Example 3); conditions: for effect on cell morphology: probe 0.25 μM
Source text: This example illustrates the effect of photodynamic therapy based on IRDye® 700DX dye conjugates on cell morphology. Other methods for evaluating changes in morphology during the PDT with additional tests of key apoptotic markers including caspase 3/7, annexin-V, vitality %, mitochondrial potential, localization (intracellular/membrane, endosomal, lysosomal), singlet oxygen generation, other radicals, etc. It was critical to identify important parameters for generating reproducible effects including irradiation level, incubation time, probe type and/or required dose to initiate cytotoxicity. By measuring these key indicators the actions of IRDye® 700DX in its ability to induce cytotoxicity was defined.
FIGS. 6A-6B provide images of the controls which were A431 cells with no irradiation (NI) or with irradiation (I). The probe dose for the respective treatments was 0.25 μM and irradiation level was 16 J/cm^2. […] These are key features of cells undergoing apoptosis and/or necrosis.

A431 cells [8] = tested on: A431 cells
Method: A different LED source was tested and evaluated to determine if a second source of LED would yield a similar effect as the standard LED used. A straight forward evaluation was set up with four treatments (treatments A-D). The tests were performed in triplicate in order to examine reproducibility. The test included the following four treatments: treatment A of no probe and irradiation, treatment B of IRdye® 700DX-labeled EGF and no irradiation, treatment C of IRDye® 700DX-labeled EGF and irradiation, and treatment D of IRDye® 700DX-labeled panitumumab and irradiation. The probe dose was about 0.1 μM labeled panitumumab and 0.5 μM 700DX-labeled EGF. Irradiation was for 10 minutes at an irradiation dose of 32 J/cm^2.
Significant and similar effects for both probes together and in triplicate thus providing clear evidence that IRDye® 700DX-labeled small protein can kill cells similarly to an IRDye 700DX-labeled antibody. Conditions for use of either probe may be unique to the individual probe. […] The fluorescent scale of the 700 nm images was the same for both treated sets of cells (FIGS. 12C-12D). Although the exact concentration of the antibody probe is not known, the signals from the different probes appear similar in level and intensity.

[9] = 32 J/cm^2, probe about 5 hours, 20 hours post irradiation, 700DX-RGD and 700DX-EGF 500 nM
[10] = 0.1 μM, Irradiation about 32 J/cm^2
[11] = 0.25 μM, Irradiation about 32 J/cm^2
[12] = 0.5 μM, Irradiation about 32 J/cm^2
[13] = 1 μM, Irradiation about 32 J/cm^2
[14] = no irradiation (NI), 700DX-EGF 0.5 μM

B1: 700DX-EGF (conjugate, UniProt P01133 23-1207, looked up)
Pro-epidermal growth factor: PQHWSCPEGTLAGNGNSTCVGPAPFLIFSHGNSIFRIDTEGTNYEQLVVDAGVSVIMDFHYNEKRIYWVDLERQLLQRVFLNGSRQERVCNIEKNVSGMAINWINEEVIWSNQQEGIITVTDMKGNNSHILLSALKYPANVAVDPVERFIFWSSEVAGSLYRADLDGVGVKALLETSEKITAVSLDVLDKRLFWIQYNREGSNSLICSCDYDGGSVHISKHPTQHNLFAMSLFGDRIFYSTWKMKTIWIANKHTGKDMVRINLHSSFVPLGELKVVHPLAQPKAEDDTWEPEQKLCKLRKGNCSSTVCGQDLQSHLCMCAEGYALSRDRKYCEDVNECAFWNHGCTLGCKNTPGSYYCTCPVGFVLLPDGKRCHQLVSCPRNVSECSHDCVLTSEGPLCFCPEGSVLERDGKTCSGCSSPDNGGCSQLCVPLSPVSWECDCFPGYDLQLDEKSCAASGPQPFLLFANSQDIRHMHFDGTDYGTLLSQQMGMVYALDHDPVENKIYFAHTALKWIERANMDGSQRERLIEEGVDVPEGLAVDWIGRRFYWTDRGKSLIGRSDLNGKRSKIITKENISQPRGIAVHPMAKRLFWTDTGINPRIESSSLQGLGRLVIASSDLIWPSGITIDFLTDKLYWCDAKQSVIEMANLDGSKRRRLTQNDVGHPFAVAVFEDYVWFSDWAMPSVMRVNKRTGKDRVRLQGSMLKPSSLVVVHPLAKPGADPCLYQNGGCEHICKKRLGTAWCSCREGFMKASDGKTCLALDGHQLLAGGEVDLKNQVTPLDILSKTRVSEDNITESQHMLVAEIMVSDQDDCAPVGCSMYARCISEGEDATCQCLKGFAGDGKLCSDIDECEMGVPVCPPASSKCINTEGGYVCRCSEGYQGDGIHCLDIDECQLGEHSCGENASCTNTEGGYTCMCAGRLSEPGLICPDSTPPPHLREDDHHYSVRNSDSECPLSHDGYCLHDGVCMYIEALDKYACNCVVGYIGERCQYRDLKWWELRHAGHGQQQKVIVVAVCVVVLVMLLLLSLWGAHYYRTQKLLSKNPKNPYEESSRDVRSRRPADTEDGMSSCPQPWFVVIKEHQDLKNGGQPVAGEDGQAADGSMQPTSWRQEPQLCGMGTEQGCWIPVSSDKGSCPQVMERSFHMPSYGTQTLEGGVEKPHSLLSANPLWQQRALDPPHQMELTQ
modifications: Pro-epidermal growth factor IRDye 700DX conjugate
Caspase 3 % late apoptotic + dead cells (HTB-186 cells [1]): 46%
dead irradiated cells (A431 cells [2]; 10 min incubation, panitumumab probe about 0.1 μM, EGF probe 0.5 μM, 24 hours post irradiation): 36%
necrotic cells after irradiation (A431 cells [2]; irradiation 24 J/cm^2 (figure legend)): 36%
% Healthy (A431 cells [3]): 60%
% Necrotic (A431 cells [3]): 20%
Cells/mL (A431 cells [3]): 3.4 × 10^5 Cells/mL
Est % Viability (A431 cells [3]): 60-70%
Low % Vitality (A431 cells [3]): 19%
cell morphology (HTB-186 cells [4]; 32 J/cm^2, 20 h post irradiation): appeared rounded and smaller
% Viability (HTB-186 cells [4]; [9]): 75.7%
Cell # (HTB-186 cells [4]; [9]): 0.7E6
% Healthy (A431 cells [5]; [10]): 72%
% Necrotic (A431 cells [5]; [10]): 10%
Cells/mL (A431 cells [5]; [10]): 4.6 × 10^5 Cells/mL
Early % Apoptotic (A431 cells [5]; [10]): 8%
Late % Apoptotic (A431 cells [5]; [10]): 11%
% Healthy (A431 cells [5]; [11]): 61%
% Necrotic (A431 cells [5]; [11]): 16%
Cells/mL (A431 cells [5]; [11]): 4.8 × 10^5 Cells/mL
Early % Apoptotic (A431 cells [5]; [11]): 5%
Late % Apoptotic (A431 cells [5]; [11]): 18%
% Healthy (A431 cells [5]; [12]): 52%
% Necrotic (A431 cells [5]; [12]): 17%
Cells/mL (A431 cells [5]; [12]): 4 × 10^5 Cells/mL
Early % Apoptotic (A431 cells [5]; [12]): 6%
Late % Apoptotic (A431 cells [5]; [12]): 26%
% Healthy (A431 cells [5]; [13]): 52%
% Necrotic (A431 cells [5]; [13]): 15%
Cells/mL (A431 cells [5]; [13]): 4 × 10^5 Cells/mL
Early % Apoptotic (A431 cells [5]; [13]): 9%
Late % Apoptotic (A431 cells [5]; [13]): 24%
% Healthy (A431 cells [5]; 1 μM, No Irradiation): 87%
% Necrotic (A431 cells [5]; 1 μM, No Irradiation): 3%
Cells/mL (A431 cells [5]; 1 μM, No Irradiation): 5.4 × 10^5 Cells/mL
Early % Apoptotic (A431 cells [5]; 1 μM, No Irradiation): 6%
Late % Apoptotic (A431 cells [5]; 1 μM, No Irradiation): 4%
mode of cell death (A431 cells [5]; irradiating light at about 32 J/cm^2): undergo apoptosis
JC-1 % shift (HTB-186 cells [6]): 42%
cytotoxicity by cell viability (A431 cells [7]; 24 h post irradiation): only the probe treated with irradiation induced cytotoxicity
effect on cell morphology (A431 cells [7]; irradiation 16 J/cm^2): dramatically altered with condensation of nuclei and cell dehydration
effect on cell morphology (A431 cells [7]; no irradiation (NI)): no deleterious effect on cell morphology
effect on cells (morphology) (A431 cells [8]; irradiated 10 minutes, 32 J/cm^2): severely affected by the irradiating energy and were dying
Cells/mL (A431 cells [8]; irradiated (I) 10 minutes, 32 J/cm^2, 700DX-EGF 0.5 μM, 700DX-Pan about 0.1 μM): 2.8 × 10^5 Cells/mL and 4.1 × 10^5 Cells/mL and 3.8 × 10^5 Cells/mL
% Vitality (A431 cells [8]; [14]): 97.9% and 98.3% and 96.0%
Cells/mL (A431 cells [8]; [14]): 6.6 × 10^5 Cells/mL and 8.0 × 10^5 Cells/mL and 7.7 × 10^5 Cells/mL
VB-48 % necrotic (A431 cells [8]; [14]): 11% and 12% and 10%
